B1: V370T: bx9 SEQ ID NO:1 mutant (protein)
chain: MASSRTGAGAGGRVVVFPFPFQGHFNPVMRLARALHARGLAITVFHSGALDPADYPADYRFVPVTVEADPKLLASEDIAAIVTTLNASCDAPFRARLSALLAAEGRDSVRCVFTDVSWNAVLTASSDLGVPALGMMTASAASLRDYMAYRTLIDKGYLPVKEERKEDPVPELPPYLVKDLLRVDTSDLEEFAELLARTVTAARRASGLIFNTFPLIETDTLAEIHKALSVPVFAVAPLNKLVPTATASLHGVVQADRGCLQWLDTQQPGSVLYVSFGSMAAMDPHEFVELAWGLADSKRPFVWVVRPNLIRGFESGALPDGVEDEVRGRGIVVAWAPQEEVLAHPAVGGFLTHNGWNSTVEAISEGVPMTCCPRHGDQFGNMRYVCDVWKVGTELVGEQLERGQVKAAIDRLFGTKEGEEIKERMKEFKIAAAKGIGIGVDVDETASPRTDLTDLVDLIKSF
modifications: Zea mays
B2: A79Q: bx9 SEQ ID NO:1 mutant (protein)
chain: B1 chain with A79Q, T370V
modifications: Zea mays
B3: V116I: bx9 SEQ ID NO:1 mutant (protein)
chain: B1 chain with V116I, T370V
modifications: Zea mays
B4: A79S: bx9 SEQ ID NO:1 mutant (protein)
chain: B1 chain with A79S, T370V
modifications: Zea mays
B5: Q22H: bx9 SEQ ID NO:1 mutant (protein)
chain: B1 chain with Q22H, T370V
modifications: Zea mays
B6: I153V: bx9 SEQ ID NO:1 mutant (protein)
chain: B1 chain with I153V, T370V
modifications: Zea mays
B7: M135C: bx9 SEQ ID NO:1 mutant (protein)
chain: B1 chain with M135C, T370V
modifications: Zea mays
B8: M135T: bx9 SEQ ID NO:1 mutant (protein)
chain: B1 chain with M135T, T370V
modifications: Zea mays
B9: I153L: bx9 SEQ ID NO:1 mutant (protein)
chain: B1 chain with I153L, T370V
modifications: Zea mays
B10: C372I: bx9 SEQ ID NO:1 mutant (protein)
chain: B1 chain with T370V, C372I
modifications: Zea mays
B11: V370M: bx9 SEQ ID NO:1 mutant (protein)
chain: B1 chain with T370M
modifications: Zea mays
B12: A79N: bx9 SEQ ID NO:1 mutant (protein)
chain: B1 chain with A79N, T370V
modifications: Zea mays
B13: G376C: bx9 SEQ ID NO:1 mutant (protein)
chain: B1 chain with T370V, G376C
modifications: Zea mays
B14: F21Y: bx9 SEQ ID NO:1 mutant (protein)
chain: B1 chain with F21Y, T370V
modifications: Zea mays
B15: M135L: bx9 SEQ ID NO:1 mutant (protein)
chain: B1 chain with M135L, T370V
modifications: Zea mays
B16: A79E: bx9 SEQ ID NO:1 mutant (protein)
chain: B1 chain with A79E, T370V
modifications: Zea mays
B17: A79G: bx9 SEQ ID NO:1 mutant (protein)
chain: B1 chain with A79G, T370V
modifications: Zea mays
B18: V116L: bx9 SEQ ID NO:1 mutant (protein)
chain: B1 chain with V116L, T370V
modifications: Zea mays
B19: V370C: bx9 SEQ ID NO:1 mutant (protein)
chain: B1 chain with T370C
modifications: Zea mays
B20: V370L: bx9 SEQ ID NO:1 mutant (protein)
chain: B1 chain with T370L
modifications: Zea mays
B21: I153Y: bx9 SEQ ID NO:1 mutant (protein)
chain: B1 chain with I153Y, T370V
modifications: Zea mays
B22: E76M: bx9 SEQ ID NO:1 mutant (protein)
chain: B1 chain with E76M, T370V
modifications: Zea mays
B23: I153T: bx9 SEQ ID NO:1 mutant (protein)
chain: B1 chain with I153T, T370V
modifications: Zea mays
B24: I153C: bx9 SEQ ID NO:1 mutant (protein)
chain: B1 chain with I153C, T370V
modifications: Zea mays
B25: V370I: bx9 SEQ ID NO:1 mutant (protein)
chain: B1 chain with T370I
modifications: Zea mays
B26: Q22M: bx9 SEQ ID NO:1 mutant (protein)
chain: B1 chain with Q22M, T370V
modifications: Zea mays
B27: I153M: bx9 SEQ ID NO:1 mutant (protein)
chain: B1 chain with I153M, T370V
modifications: Zea mays
B28: V370A: bx9 SEQ ID NO:1 mutant (protein)
chain: B1 chain with T370A
modifications: Zea mays
B29: Q22P: bx9 SEQ ID NO:1 mutant (protein)
chain: B1 chain with Q22P, T370V
modifications: Zea mays
B30: I153K: bx9 SEQ ID NO:1 mutant (protein)
chain: B1 chain with I153K, T370V
modifications: Zea mays

Residue numbers refer to the chain shown, from its start. Names may count otherwise.

The nature of the test: UDP luminescence plate assay of E. coli extracts, saturation mutants of SEQ ID NO: 1, herbicide V. Particulars: improvement factor relative to w/t bx9 = 1.0, rounded to nearest 0.5; extract activity basis; compound V. In kind it is biochemical, Zea mays. Here is the method:
Competent BL21 (DE3) cells are transformed as in the foregoing examples and, following seed culturing, grown and autoinduced in plates in a 0.5-1 ml volume of autoinduction medium containing 50 ug/ml kanamycin. Plates are incubated at 37° C. and shaken at 900 rpm. Growth is monitored by taking 20 ul aliquots, diluting 10 fold into flat-bottomed 96 well microtiter plates and reading OD600n at t=0, 1, 2, 2½ and 3 hours if necessary. At a (corrected) OD600 nm˜0.2, plates are transferred to 20° C. and shaken overnight at 900 rpm in a Jencons VWR plate incubator. After ˜18-20 h the final OD600 readings are recorded and the plates centrifuged at 4600 rpm (bench top centrifuge) for 10 min at 4° C. The supernatant is discarded and the pellets then washed with 0.25 ml PBS by repeat centrifugation and removal of supernatant before freezing cell pellets at −80° C. To prepare extracts, plates are allowed to thaw for 30 min and then pellets are resuspended in 0.25 ml of a suitable lysis buffer (for example—50 mM Tris HCL buffer at pH 8.0, 5% glycerol containing 50 mM NaCl and lysonase) mixed, incubated at room temperature for a sufficient time for lysis to be near complete and then centrifuged to remove cell debris and 100 ul of supernatant extract removed to a 96 well V-shaped well plate and stored on ice prior to assay.
Optionally plate assays are stopped with brief heating to 95 C before returning to ice and addition of UDP-Glo detection reagent followed by incubation at lab temperature. […] In addition a UDP standard curve is run alongside each set of plate tests.
Making use of the ELISA assay it is then possible to calculate a specific activity (e.g. in Relative Luminescence Units (RLU)/min/ug bx protein) based upon the amount of each mutant bx9 polypeptide expressed in each well. […] The specific activity of the various test mutant extracts on the same plate are then expressed as a fraction of the specific activity of the w/t bx9 and thus the ‘improvement factor’ versus the w/t expressed as a decimal where, for example, ‘0.5’ means half the specific activity of the wild type and 2.0 means twice the specific activity of the wild type. However, as will be readily apparent to the skilled man, particularly in cases where the UDP assay signal was low (with poor signal to noise versus the background) and/or the ELISA measurement of bx protein also low such a method is prone to generate spurious high specific activity numbers and uncertain numbers.
In the case of B1, the “Preferred amino acid substitutions and (IF) based on RLU/min/ul” value was “T,C,L,M(1.0)”.

For B2, the “Preferred amino acid substitutions and (IF) based on RLU/min/ul” value is recorded as 1.0.

For B3, the “Preferred amino acid substitutions and (IF) based on RLU/min/ul” value was “L,I(1.0)”.

In the case of B4, the “Preferred amino acid substitutions and (IF) based on RLU/min/ul” value was 1.0.

Take B5: the “Preferred amino acid substitutions and (IF) based on RLU/min/ul” value is “H,P,M(1.0)”.

On to B6, for which the “Preferred amino acid substitutions and (IF) based on RLU/min/ul” value is recorded as “T,C,K,V,L,M,Y(1.0);”.

For B7, the “Preferred amino acid substitutions and (IF) based on RLU/min/ul” value was “T,C,L(1.0)”.

On to B8, for which the “Preferred amino acid substitutions and (IF) based on RLU/min/ul” value is reported as “T,C,L(1.0)”.

As for B9, the “Preferred amino acid substitutions and (IF) based on RLU/min/ul” value is “T,C,K,V,L,M,Y(1.0);”.

For the molecule B10, the “Preferred amino acid substitutions and (IF) based on RLU/min/ul” value was “I(1.0)”.

Regarding B11, the “Preferred amino acid substitutions and (IF) based on RLU/min/ul” value is given as “T,C,L,M(1.0)”.

In the case of B12, the “Preferred amino acid substitutions and (IF) based on RLU/min/ul” value was found to be 1.0.

As to B13, the “Preferred amino acid substitutions and (IF) based on RLU/min/ul” value is recorded as “C,M(1.0)”.

Regarding B14, the “Most Preferred amino acid substitutions and (IF) based on RLU/min/ul” value is recorded as “Y(2.0)”.

As to B15, the “Preferred amino acid substitutions and (IF) based on RLU/min/ul” value was “T,C,L(1.0)”.

Consider B16, for which the “Preferred amino acid substitutions and (IF) based on RLU/min/ul” value came to 1.5.

Take B17: the “Preferred amino acid substitutions and (IF) based on RLU/min/ul” value is 1.5.

Consider B18, for which the “Preferred amino acid substitutions and (IF) based on RLU/min/ul” value is on record as “L,I(1.0)”.

Consider B19, for which the “Preferred amino acid substitutions and (IF) based on RLU/min/ul” value was “T,C,L,M(1.0)”.

Regarding B20, the “Preferred amino acid substitutions and (IF) based on RLU/min/ul” value was “T,C,L,M(1.0)”.

Turning to B21, the “Preferred amino acid substitutions and (IF) based on RLU/min/ul” value was “T,C,K,V,L,M,Y(1.0);”.

Consider B22, for which the “Preferred amino acid substitutions and (IF) based on RLU/min/ul” value is listed as “M(1.0)”.

Take B23: the “Preferred amino acid substitutions and (IF) based on RLU/min/ul” value was “T,C,K,V,L,M,Y(1.0);”.

As to B24, the “Preferred amino acid substitutions and (IF) based on RLU/min/ul” value is “T,C,K,V,L,M,Y(1.0);”.

Consider B25, for which the “Preferred amino acid substitutions and (IF) based on RLU/min/ul” value is listed as “A,I(1.5)”.

Consider B26, for which the “Preferred amino acid substitutions and (IF) based on RLU/min/ul” value is reported as “H,P,M(1.0)”.

For B27, the “Preferred amino acid substitutions and (IF) based on RLU/min/ul” value is reported as “T,C,K,V,L,M,Y(1.0);”.

As for B28, the “Preferred amino acid substitutions and (IF) based on RLU/min/ul” value is on record as “A,I(1.5)”.

Turning to B29, the “Preferred amino acid substitutions and (IF) based on RLU/min/ul” value is given as “H,P,M(1.0)”.

Take B30: the “Preferred amino acid substitutions and (IF) based on RLU/min/ul” value is on record as “T,C,K,V,L,M,Y(1.0);”.

The values above are taken from patent US20200270588A1, “GLUCOSYL TRANSFERASE POLYPEPTIDES AND METHODS OF USE” (Syngenta Participations AG, priority 2017, published 2020).
